A short description of this data set: self-splicing fitness, log relative to wild type (ln ratio); higher = more splicing; Tetrahymena group I intron in knt gene, E. coli kanamycin selection, DiMSum; sequences stand for … in CUCUCU…GGAGGGAAAAGUUAUCAGGCAUGCACCUGGUAGCUAGUCUUUAAACCAAUAGAUUGCAUCGGUUUAAAAGGCAAGACCGUCAAAUUGCGGGAAAGGGGUCAACAGCCGUUCAGUACCAAGUCUCAGGGGAAACUUUGAGAUGGCCUUGCAAAGGGUAUGGUAAUAAGCUGACGGACAUGGUCCUAACCACGCAGCCAAGUCCUAAGUCAACAGAUCUUCUGUUGAUAUGGAUGCAGUUCACAGACUAAAUGUCGGUCGGGGAAGAUGUAUUCUUCUCAUAAGAUAUAGUCGGACCUCUCCUUAAUGGGAGCUAGCGGAUGAAGUGAUGCAACACUGGAGCCGCUGGGAACUAAUUUGUAUGCGAAAGUAUAUUGAUUAGUUUUGGAGUACUCGUGGUCG
Summed up:
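The eight P1ex-region nucleotides of an intron in the knt kanamycin-resistance gene on pET-22b(+) were all randomised and the library put into E. coli BL21(DE3). Six replicate transformations were grown overnight at 37°C or 30°C on LB agar with or without 25 μg/mL kanamycin, together with 100 μg/mL carbenicillin, 50 μM IPTG and 0.2% rhamnose. Colonies were pooled and amplicon-sequenced on an Illumina HiSeq 2500. Fitness from DiMSum is the error-weighted combination of wild-type-normalised replicate fold changes, kanamycin over none.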

Consider 39 sequences from the supplement of paper PMC7877785.

± gives the uncertainty stated by the source.

AUGUAGCAAUAUUACGGAUA: the “self-splicing fitness (ln)” value runs as follows: (30 °C) -1.43 ± 0.16; (37 °C) -1.83 ± 0.28.
As to AGCAAGCAAUAUUACGGCUC, the “self-splicing fitness (ln)” value runs as follows: (30 °C) -4.6 ± 0.27; (37 °C) -3.41 ± 0.4.
On to AACCAGCAAUAUUACGCAGA, for which the “self-splicing fitness (ln)” value by setting is: (30 °C) -1.76 ± 0.11; (37 °C) -1.37 ± 0.11.
GACAAGCAAUAUUACGGUGG: the “self-splicing fitness (ln)” value runs as follows: (30 °C) -2.01 ± 0.066; (37 °C) -1.88 ± 0.092.
On to UCUAAGCAAUAUUACGUAGG, for which the “self-splicing fitness (ln)” value (30 °C) was -1.65 ± 0.093 and the “self-splicing fitness (ln)” value (37 °C) was -1.24 ± 0.15.
As for UAUUAGCAAUAUUACGCUUC, the “self-splicing fitness (ln)” value (30 °C) is -3.43 ± 0.44 and the “self-splicing fitness (ln)” value (37 °C) was -2.84 ± 0.38.
For the sequence GUCUAGCAAUAUUACGCGGA, the “self-splicing fitness (ln)” value is, setting by setting: (30 °C) -2.61 ± 0.33; (37 °C) -2.07 ± 0.27.
Consider UCCAAGCAAUAUUACGUAUA, for which the “self-splicing fitness (ln)” value by setting is: (30 °C) -2.19 ± 0.094; (37 °C) -1.29 ± 0.096.
For GCAUAGCAAUAUUACGCCGC, the “self-splicing fitness (ln)” value (37 °C) is -1.28 ± 0.27.
Turning to CUACAGCAAUAUUACGAUCC, the “self-splicing fitness (ln)” value was -4.14 ± 0.36 (30 °C) and -1.44 ± 0.26 (37 °C).
In the case of GGAUAGCAAUAUUACGGAAU, the “self-splicing fitness (ln)” value was -2.48 ± 0.17 (30 °C) and -2.33 ± 0.24 (37 °C).
Take UAUGAGCAAUAUUACGGUAU: the “self-splicing fitness (ln)” value is -4.03 ± 0.42 (30 °C) and -1.06 ± 0.24 (37 °C).
On to CAAAAGCAAUAUUACGUGAU, for which the “self-splicing fitness (ln)” value runs as follows: (30 °C) -3.62 ± 0.11; (37 °C) -2.41 ± 0.12.
Take GCCUAGCAAUAUUACGCCGC: the “self-splicing fitness (ln)” value reads like this: (30 °C) -2.48 ± 0.36; (37 °C) -1.5 ± 0.34.
The corresponding values for AAAUAGCAAUAUUACGGUCA are -0.724 ± 0.069 and 0.0582 ± 0.071.
The corresponding values for AUAUAGCAAUAUUACGUCCU are -0.548 ± 0.11 and 0.119 ± 0.12.
In the case of GGUGAGCAAUAUUACGGUAA, the “self-splicing fitness (ln)” value (37 °C) was -2.66 ± 0.4.
Consider UGUGAGCAAUAUUACGCCGA, for which the “self-splicing fitness (ln)” value is, setting by setting: (30 °C) -3.5 ± 0.39; (37 °C) -1.77 ± 0.27.
As to CCCAAGCAAUAUUACGUGAG, the “self-splicing fitness (ln)” value runs as follows: (30 °C) -2.48 ± 0.09; (37 °C) -0.85 ± 0.08.
For the sequence AAUCAGCAAUAUUACGUGAC, the “self-splicing fitness (ln)” value is -1.81 ± 0.085 (30 °C) and -1.72 ± 0.12 (37 °C).
Consider CUAGAGCAAUAUUACGCUCC, for which the “self-splicing fitness (ln)” value (30 °C) is -2.45 ± 0.42.
Consider UGUAAGCAAUAUUACGGCGU, for which the “self-splicing fitness (ln)” value reads like this: (30 °C) -0.483 ± 0.1; (37 °C) -0.397 ± 0.12.
The corresponding values for ACCUAGCAAUAUUACGCAAU are -2 ± 0.1 and -0.798 ± 0.09.
On to UGAAAGCAAUAUUACGCCCC, for which the “self-splicing fitness (ln)” value by setting is: (30 °C) -1.35 ± 0.43; (37 °C) 0.00457 ± 0.49.
Regarding UUGCAGCAAUAUUACGGGAG, the “self-splicing fitness (ln)” value is -1.53 ± 0.11 (30 °C) and -1.58 ± 0.13 (37 °C).
As to AAGUAGCAAUAUUACGCUAG, the “self-splicing fitness (ln)” value reads like this: (30 °C) -1.57 ± 0.17; (37 °C) -1.04 ± 0.2.
The corresponding values for AACUAGCAAUAUUACGGGCU are -1.29 ± 0.11 and -1.19 ± 0.16.
For the sequence UAAGAGCAAUAUUACGCUCA, the “self-splicing fitness (ln)” value (30 °C) is -2.37 ± 0.23 and the “self-splicing fitness (ln)” value (37 °C) is -1.54 ± 0.18.
For the sequence UACGAGCAAUAUUACGCCGG, the “self-splicing fitness (ln)” value is, setting by setting: (30 °C) -2.84 ± 0.29; (37 °C) 0.206 ± 0.22.
For the sequence CUCAAGCAAUAUUACGACGG, the “self-splicing fitness (ln)” value was -0.942 ± 0.1 (30 °C) and -1.05 ± 0.13 (37 °C).
As to GCGAAGCAAUAUUACGAUGU, the “self-splicing fitness (ln)” value runs as follows: (30 °C) -2.82 ± 0.15; (37 °C) -1.42 ± 0.12.
On to CCGCAGCAAUAUUACGCAAA, for which the “self-splicing fitness (ln)” value (30 °C) is -3.29 ± 0.21 and the “self-splicing fitness (ln)” value (37 °C) is -2.15 ± 0.22.
Regarding CCCGAGCAAUAUUACGUGGG, the “self-splicing fitness (ln)” value (30 °C) was -3.97 ± 0.19 and the “self-splicing fitness (ln)” value (37 °C) was -2.79 ± 0.19.
With UAACAGCAAUAUUACGCGAA, the “self-splicing fitness (ln)” value is -1.9 ± 0.11 (30 °C) and -0.949 ± 0.11 (37 °C).
In the case of GUCCAGCAAUAUUACGUGUA, the “self-splicing fitness (ln)” value by setting is: (30 °C) -0.96 ± 0.073; (37 °C) 0.159 ± 0.077.
In the case of GGACAGCAAUAUUACGACUC, the “self-splicing fitness (ln)” value reads like this: (30 °C) -0.16 ± 0.078; (37 °C) 0.231 ± 0.097.
For the sequence GGUAAGCAAUAUUACGCGAU, the “self-splicing fitness (ln)” value (30 °C) is -2.17 ± 0.3.
Turning to GACUAGCAAUAUUACGCAUG, the “self-splicing fitness (ln)” value reads like this: (30 °C) -1.24 ± 0.063; (37 °C) -0.455 ± 0.075.
Take AAGCAGCAAUAUUACGACGC: the “self-splicing fitness (ln)” value was -0.811 ± 0.092 (30 °C) and -0.525 ± 0.13 (37 °C).
